Laboratory results: patent publication US20170087188A1, “WNT INDUCED MOTILITY AND ENHANCED ENGRAFTMENT OF CELLS” (OTTAWA HOSPITAL RESEARCH INSTITUTE, priority 2014, published 2017)
“And” between values parts separate entries of the source, which are not always exact repeats. Equal values may be shown once. “Also recorded” adds a separate entry of the source.

Key:
[1] = test system: tibialis anterior (TA) muscle; test: In vivo myoblast dispersal assay, tdTomato myoblasts into TA of C57BL/6 mice; design: species or system mouse; conditions: myoblasts treated 3 h, transplanted into TA of immunosuppressed C57BL/6 mice; 7 days; vs Veh.
Description: The duration of effects on cell migration were tested by loading intracellular stores with Wnt7a. tdTomato-expressing primary myoblasts, derived from tamoxifen treated Pax7-CreER; R26R-tdTomato mice (Yin et al., 2013a) were exposed to Wnt7a for 3 h; then the cells were washed and transplanted into the tibialis anterior (TA) muscle of immunosuppressed C57BL/6 mice (FIG. 5A). The myoblasts were co-injected with fluorescent microspheres to identify the injection site in subsequent analyses. 7 days later the mice were sacrificed and the behavior of the transplanted cells in the tissue was analyzed by scoring the number of tdTomato-expressing myofibers that were generated by fusion events with the donor cells. Transplantation of zsGreen-expressing satellite cells or myoblasts into mdx mice was performed as previously described (Bentzinger et al., 2013c). Before transplantation the cells were treated for 3 h with Wnt7a, Wnt5a, or Wnt3a (R&D Systems) at a concentration of 50 ng/mL for freshly isolated satellite cells or with 100 ng/mL for cultured cells. Myoblasts expressing tdTomato were transplanted into uninjured muscles of C57BL/6 mice that were implanted with an osmotic pump (Alzet) delivering FK506 (Sigma) at 2.5 mg/kg/day 3 days prior to the transplantations. […]

[2] = test system: mdx extensor digitorum longus (EDL) muscles; test: Muscle force measurement of mdx EDL muscles after satellite cell transplantation; assay type: in vivo, mouse; conditions: 3,000 satellite cells treated ex vivo, compared to Veh.
Text: Under normal conditions, a portion of transplanted satellite cells will differentiate and fuse to muscle myofibers. In mdx mice, this process can be tracked by staining for restored dystrophin expression in muscle fibers. […] Similar to the stimulatory effect of Wnt7a on myogenic cell migration in vitro, clusters of dystrophin-expressing myofibers in muscles that were transplanted with Wnt7a-treated cells were highly dispersed and on average located maximally 3.7 mm apart. By contrast, transplantation of untreated cells gave rise to clusters of dystrophin-expressing myofibers that were on maximally 2.2 mm apart on average (FIGS. 6F and 6G).
Extensor digitorum longus (EDL) muscles were isolated three weeks following transplantation and attached to an electrode and a force sensor (Aurora Scientific), and incubated at 25° C. in buffered physiological saline (Krebs-Ringer) supplemented with glucose and oxygen. Twitch force was determined following a single electrical stimulus, while maximal force was generated by electrical stimulation at 100 Hz for 500 ms. Thereafter, muscle length and weight were measured and specific muscle force was calculated ((maximal force×optimal fiber length×muscle density)/muscle mass).

Fzd7 = test: Subcellular distribution of Fzd7-YFP in primary myoblasts; assay type: cell-based; conditions: Wnt7a stimulated vs controls
Description: The effect of Wnt7a treatment on the subcellular distribution of Fzd7 was tested. […] Furthermore, it was observed that myoblasts exposed to conditioned medium containing HA epitope tagged Wnt7a (Wnt7a-HA) quickly endocytosed this factor. After 3 h of incubation and several subsequent washing steps, endocytosed Wnt7a-HA was detectable for ≧72 h in intracellular structures in primary myoblasts (FIG. 4E) and C2C12 cells (FIG. 11E).

mdx mice = test: Transplantation of Wnt7a-treated human primary myoblasts into mdx mice; assay type: in vivo, mouse
Description: The effectiveness of Wnt7a on human myoblasts, in vivo, was tested using the same experimental paradigm that we previously used for mouse myoblasts (FIG. 7C). 100,000 human myoblasts were treated ex vivo with Wnt7a for 3 h, and transplanted into immunosuppressed mdx mice. […] (FIG. 7D). […] Moreover, the mean maximal distance between dystrophin-expressing myofiber clusters increased from 1.8 mm under the Veh. condition to 3.0 mm for Wnt7a treatment (FIG. 7F).
Transplantation of zsGreen-expressing satellite cells or myoblasts into mdx mice was performed as previously described (Bentzinger et al., 2013c). Before transplantation the cells were treated for 3 h with Wnt7a, Wnt5a, or Wnt3a (R&D Systems) at a concentration of 50 ng/mL for freshly isolated satellite cells or with 100 ng/mL for cultured cells. Myoblasts expressing tdTomato were transplanted into uninjured muscles of C57BL/6 mice that were implanted with an osmotic pump (Alzet) delivering FK506 (Sigma) at 2.5 mg/kg/day 3 days prior to the transplantations. In some experiments, the injection site was marked with blue fluorescent microspheres (2 μm, Life Technologies) that were added at a concentration of 1:100 (vol/vol) to the cell suspension. 10 μl of the cell-microsphere suspension was injected into the TA of each mouse using a Hamilton syringe.

[3] = test system: Rac1 association with Dvl2; test: Co-IP of Rac1 with Dvl2 in primary myoblasts; assay type: cell-based, mouse; conditions: Wnt7a stimulated (infected) primary myoblasts vs EV
Text: Wnt7a signaling in satellite cells involves Rac1. Polarized peripheral Fzd7-tdTomato colocalized with GFP-Rac1 in C2C12 cells (FIG. 3A). It was hypothesized that the small GTPase Rac1 might also be involved in Wnt7a mediated cell polarization and migration. […] Various forms of Wnt signaling require Disheveled (Dvl) proteins.
For co-immunoprecipitation (CoIP) experiments and the Rac1 activation assay, satellite cell-derived primary myoblasts were infected with retroviruses generated from empty pHAN or from pHAN-Wnt7a-HA (Kuroda et al., 2013). Dvl2 knockdown was performed with an ON-TARGETplus siRNA SMARTpool (L-040921-01, Thermo Fisher Scientific) (Wu et al., 2008) using Lipofectamine RNAiMAX (Life Technologies) according to the manufacturer's instructions. As a control for the knockdown, a non-silencing siRNA SMARTpool was used (D-001810-10, Thermo Fisher Scientific). Cell extracts were obtained through RIPA buffer lysis in the presence of a protease inhibitor cocktail (Nacalai). For CoIP of Rac1 with Dvl2, rabbit anti-Dvl2 antibody was coupled to Protein A Dynabeads (Life Technologies). Denaturing SDS-PAGE was performed using standard techniques. Rac1 activation assay was performed according to the manufacturer's instructions (Pierce).

B1: Wnt7a: non-canonical Wnt polypeptide (R&D Systems) used to treat or load myogenic cells (protein, UniProt O00755 32-349, looked up)
Protein Wnt-7a: LGASIICNKIPGLAPRQRAICQSRPDAIIVIGEGSQMGLDECQFQFRNGRWNCSALGERTVFGKELKVGSREAAFTYAIIAAGVAHAITAACTQGNLSDCGCDKEKQGQYHRDEGWKWGGCSADIRYGIGFAKVFVDAREIKQNARTLMNLHNNEAGRKILEENMKLECKCHGVSGSCTTKTCWTTLPQFRELGYVLKDKYNEAVHVEPVRASRNKRPTFLKIKKPLSYRKPMDTDLVYIEKSPNYCEEDPVTGSVGTQGRACNKTAPQASGCDLMCCGRGYNTHQYARVWQCNCKFHWCCYVKCNTCSERTEMYTCK
increase in number of tdTomato-expressing myofibers [1]: 119% | increase in maximal specific force generation [2]: 18% | increase in twitch tension [2]: 30% | subcellular distribution of Fzd7-YFP (Fzd7): decreases the abundance of peripheral Fzd7-YFP; also recorded: higher abundance of large intracellular aggregates and reduced peripheral Fzd7-YFP | increase in the number of dystrophin-expressing myofibers (mdx mice; 100,000 human myoblasts treated ex vivo 3 h, immunosuppressed mdx mice, compared to Veh.): 226% and > 200% | mean maximal distance between dystrophin-expressing myofiber clusters (mdx mice; human myoblasts treated ex vivo 3 h, mdx mice): 3.0 mm | increase in fiber feret (mdx mice; myofibers fused to Wnt7a-treated human myoblasts, mdx mice): 29% | Rac1 association with Dvl2 [3]: increased Rac1 association with Dvl2
